Assay results published in patent US20250277046A1 (JULIUS MAXIMILIANS UNIVERSIT T W RZBURG, published 2025).

T1: Fibroblast growth factor (FGF)-inducible 14 (Fn14) (UniProt Q9NP84 28-129, limits assumed)
T1 sequence (looked up): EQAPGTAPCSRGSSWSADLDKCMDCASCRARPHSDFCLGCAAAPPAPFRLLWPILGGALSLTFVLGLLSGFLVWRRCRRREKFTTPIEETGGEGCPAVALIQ


Target: T1, Fibroblast growth factor …
Test: cell-based or functional assay

Binder	enhancement of TNF-induced toxicity (HeLa-RIPK3-FADDKO cells, 1 ng/ml TNF), ED50 [µg/mL]	p100 processing (western blot), starting concentration [ng/mL]
18D1-(3) (antibody) heavy: not shown light: QLDYKDDDDKEFQSALTQPPSVSGSPGKTVTISCAGTGGDVGYRNSVSWYQQLPGMAPKLLIYDVDKRASGITDRFSGSKSGDTASLTISGVQSEDEADYYCASQRSGIAAVFGGGTHLTVLGGSEIKRTVAAPSVFIFPPSDEQLKSGTASVVCLLNNFYPREAKVQWKVDNALQSGNSQESVTEQDSKDSTYSLSSTLTLSKADYEKHKVYACEVTHQGLSSPVTKSFNRGECLEEVQLVESGGGLVQPGGSLRLSCAASGFTFSNYWMSWVRQAPGKGLEWVSGINPGGTSTYYADSVKGRFTISRDNAKNTLYLQMNSLKSEDTAVYYCAKHLGNWGEYNYWGQGTQVTVSSRSSTKGPKLEEGEFSEAQLQSALTQPPSVSGSPGKTVTISCAGTGGDVGYRNSVSWYQQLPGMAPKLLIYDVDKRASGITDRFSGSKSGDTASLTISGVQSEDEADYYCASQRSGIAAVFGGGTHLTVLG	< 0.1	~20
18D1-(4) (antibody) heavy: not shown light: QLDYKDDDDKEFQSALTQPPSVSGSPGKTVTISCAGTGGDVGYRNSVSWYQQLPGMAPKLLIYDVDKRASGITDRFSGSKSGDTASLTISGVQSEDEADYYCASQRSGIAAVFGGGTHLTVLGGSEIKRTVAAPSVFIFPPSDEQLKSGTASVVCLLNNFYPREAKVQWKVDNALQSGNSQESVTEQDSKDSTYSLSSTLTLSKADYEKHKVYACEVTHQGLSSPVTKSFNRGECLEEVQLVESGGGLVQPGGSLRLSCAASGFTFSNYWMSWVRQAPGKGLEWVSGINPGGTSTYYADSVKGRFTISRDNAKNTLYLQMNSLKSEDTAVYYCAKHLGNWGEYNYWGQGTQVTVSSRSSTKGPKLEEGEFSEAQLQSALTQPPSVSGSPGKTVTISCAGTGGDVGYRNSVSWYQQLPGMAPKLLIYDVDKRASGITDRFSGSKSGDTASLTISGVQSEDEADYYCASQRSGIAAVFGGGTHLTVLG	< 0.1	~20
18D1-(5) (antibody) heavy: not shown light: QLDYKDDDDKEFEVQLVESGGGLVQPGGSLRLSCAASGFTFSNYWMSWVRQAPGKGLEWVSGINPGGTSTYYADSVKGRFTISRDNAKNTLYLQMNSLKSEDTAVYYCAKHLGNWGEYNYWGQGTQVTVSSRSSTKGPKLEEGEFSEAQLQSALTQPPSVSGSPGKTVTISCAGTGGDVGYRNSVSWYQQLPGMAPKLLIYDVDKRASGITDRFSGSKSGDTASLTISGVQSEDEADYYCASQRSGIAAVFGGGTHLTVLGGSEIKRTVAAPSVFIFPPSDEQLKSGTASVVCLLNNFYPREAKVQWKVDNALQSGNSQESVTEQDSKDSTYSLSSTLTLSKADYEKHKVYACEVTHQGLSSPVTKSFNRGEC	< 0.1	~200
18D1-(6) (antibody) heavy: not shown light: QLDYKDDDDKEFEVQLVESGGGLVQPGGSLRLSCAASGFTFSNYWMSWVRQAPGKGLEWVSGINPGGTSTYYADSVKGRFTISRDNAKNTLYLQMNSLKSEDTAVYYCAKHLGNWGEYNYWGQGTQVTVSSRSSTKGPKLEEGEFSEAQLQSALTQPPSVSGSPGKTVTISCAGTGGDVGYRNSVSWYQQLPGMAPKLLIYDVDKRASGITDRFSGSKSGDTASLTISGVQSEDEADYYCASQRSGIAAVFGGGTHLTVLGGSEIKRTVAAPSVFIFPPSDEQLKSGTASVVCLLNNFYPREAKVQWKVDNALQSGNSQESVTEQDSKDSTYSLSSTLTLSKADYEKHKVYACEVTHQGLSSPVTKSFNRGEC	< 0.1	~200
18D1-(7) (antibody) heavy: not shown light: QLDYKDDDDKEFEVQLVESGGGLVQPGGSLRLSCAASGFTFSNYWMSWVRQAPGKGLEWVSGINPGGTSTYYADSVKGRFTISRDNAKNTLYLQMNSLKSEDTAVYYCAKHLGNWGEYNYWGQGTQVTVSSRSSTKGPKLEEGEFSEAQLQSALTQPPSVSGSPGKTVTISCAGTGGDVGYRNSVSWYQQLPGMAPKLLIYDVDKRASGITDRFSGSKSGDTASLTISGVQSEDEADYYCASQRSGIAAVFGGGTHLTVLGGSEIKRTVAAPSVFIFPPSDEQLKSGTASVVCLLNNFYPREAKVQWKVDNALQSGNSQESVTEQDSKDSTYSLSSTLTLSKADYEKHKVYACEVTHQGLSSPVTKSFNRGECLEEVQLVESGGGLVQPGGSLRLSCAASGFTFSNYWMSWVRQAPGKGLEWVSGINPGGTSTYYADSVKGRFTISRDNAKNTLYLQMNSLKSEDTAVYYCAKHLGNWGEYNYWGQGTQVTVSSRSSTKGPKLEEGEFSEAQLQSALTQPPSVSGSPGKTVTISCAGTGGDVGYRNSVSWYQQLPGMAPKLLIYDVDKRASGITDRFSGSKSGDTASLTISGVQSEDEADYYCASQRSGIAAVFGGGTHLTVLG	< 0.1	~200
18D1-(8) (antibody) heavy: not shown light: QLDYKDDDDKEFEVQLVESGGGLVQPGGSLRLSCAASGFTFSNYWMSWVRQAPGKGLEWVSGINPGGTSTYYADSVKGRFTISRDNAKNTLYLQMNSLKSEDTAVYYCAKHLGNWGEYNYWGQGTQVTVSSRSSTKGPKLEEGEFSEAQLQSALTQPPSVSGSPGKTVTISCAGTGGDVGYRNSVSWYQQLPGMAPKLLIYDVDKRASGITDRFSGSKSGDTASLTISGVQSEDEADYYCASQRSGIAAVFGGGTHLTVLGGSEIKRTVAAPSVFIFPPSDEQLKSGTASVVCLLNNFYPREAKVQWKVDNALQSGNSQESVTEQDSKDSTYSLSSTLTLSKADYEKHKVYACEVTHQGLSSPVTKSFNRGECLEEVQLVESGGGLVQPGGSLRLSCAASGFTFSNYWMSWVRQAPGKGLEWVSGINPGGTSTYYADSVKGRFTISRDNAKNTLYLQMNSLKSEDTAVYYCAKHLGNWGEYNYWGQGTQVTVSSRSSTKGPKLEEGEFSEAQLQSALTQPPSVSGSPGKTVTISCAGTGGDVGYRNSVSWYQQLPGMAPKLLIYDVDKRASGITDRFSGSKSGDTASLTISGVQSEDEADYYCASQRSGIAAVFGGGTHLTVLG	< 0.1	~200
18D1-(2) (antibody) heavy: not shown light: QLDYKDDDDKEFQSALTQPPSVSGSPGKTVTISCAGTGGDVGYRNSVSWYQQLPGMAPKLLIYDVDKRASGITDRFSGSKSGDTASLTISGVQSEDEADYYCASQRSGIAAVFGGGTHLTVLGGSEIKRTVAAPSVFIFPPSDEQLKSGTASVVCLLNNFYPREAKVQWKVDNALQSGNSQESVTEQDSKDSTYSLSSTLTLSKADYEKHKVYACEVTHQGLSSPVTKSFNRGEC	< 0.1	~20
